# Measurements from paper PMC10906245, “Hydrogen–Deuterium Exchange Mass Spectrometry Identifies Local and Long-Distance Interactions within the Multicomponent Radical SAM Enzyme, PqqE” (ACS Central Science, 2024).
# Tests used:
# [1] = target: PqqE in complex with PqqD (PqqDE) (Methylorubrum extorquens, UniProt P71517); assay: HDX-MS, PqqDES versus PqqDE; assay type: binding; conditions: no PqqA, no reductant, site at RS Fe4S4 cluster (peptide 21-32)
# [2] = target: PqqD (Methylorubrum extorquens) (UniProt Q49148); conditions: cited from earlier work
# PqqD (Methylorubrum extorquens), sequence (Q49148 whole entry): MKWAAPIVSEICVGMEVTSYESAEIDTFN
# [3] = target: PqqE (Methylorubrum extorquens) (UniProt B7KXC6); conditions: cited from earlier work
# PqqE (Methylorubrum extorquens), sequence (B7KXC6 whole entry): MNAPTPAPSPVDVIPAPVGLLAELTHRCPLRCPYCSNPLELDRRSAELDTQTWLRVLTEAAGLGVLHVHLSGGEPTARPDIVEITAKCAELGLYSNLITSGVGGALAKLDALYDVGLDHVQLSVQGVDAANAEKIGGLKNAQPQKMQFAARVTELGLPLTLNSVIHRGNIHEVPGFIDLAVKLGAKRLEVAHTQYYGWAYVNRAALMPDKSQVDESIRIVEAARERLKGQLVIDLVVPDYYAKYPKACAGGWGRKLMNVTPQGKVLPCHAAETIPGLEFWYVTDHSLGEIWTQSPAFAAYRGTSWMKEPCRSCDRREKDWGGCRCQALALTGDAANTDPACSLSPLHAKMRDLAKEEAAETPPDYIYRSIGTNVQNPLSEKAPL
# PqqE in complex with PqqD (PqqDE), sequence (Q49150 279-372): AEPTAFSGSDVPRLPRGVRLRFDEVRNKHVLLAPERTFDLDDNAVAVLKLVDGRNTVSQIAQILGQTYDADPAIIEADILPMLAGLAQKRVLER
# PqqE in complex with PqqD (PqqDE), sequence (P71517 whole entry): as the sequence (B7KXC6 whole entry) above, with S286A, Q293K counted along it
compound,measurement,setting,value
"C[S+](CC[C@H](N)C(=O)O)C[C@H]1O[C@@H](n2cnc3c(N)ncnc32)[C@H](O)[C@@H]1O (stereo partly drawn) [SAM, S-adenosylmethionine]","HDX-MS, PqqDES versus PqqDE",[1],"When SAM was added to the PqqDE complex, we identified one type I peptide"
PqqA (from UniProt Q49148),Kd,[2],390 nM
PqqD (from UniProt Q49148),Kd,[3],4500 nM
